These results are taken from EP4541444A1 (Cytiva BioProcess R&D AB, dated 2025).

This assay concerns the target T1, human serum albumin (human, UniProt P02768 25-609).
T1 construct: also called HSA
Put plainly: SPR (Biacore), ligand immobilized on chip.

B1: scFvHSA (scFv)
scFv: EVQLLESGGGLVQPGGSLRLSCAVSGIDLSNYAINWVRQAPGKGLEWIGIIWASGTTFYATWAKGRFTISRDNSKNTVYLQMNSLRAEDTAVYYCARTVPGYSTAPYFDLWGQGTLVTVSSGGGGSGGGGSGGGGSDIQMTQSPSSVSASVGDRVTITCQSSPSVWSNFLSWYQQKPGKAPKLLIYEASKLTSGVPSRFSGSGSGTDFTLTISSLQPEDFATYYCGGGYSSISDTTFGGGTKVEIKRTVQASGSHHHHHH
notes: also called anti-HSA scFv
Consider B1, for which the binding result is “binds”.
